We go through four molecules from US20110020833A1.

Where no end group is shown, it is not given here.

This test has as its target BSA+oligo-Lys conjugate (oligo-Lys peptide K14C coupled to bovine serum albumin) (bovine) (UniProt P02769). The test is described as follows: MACN-labeled peptide in plasma matrix, 30 min in tubes coated with oligo-Lys-BSA to which the oligo-Asp-anti-PCT antibody was bonded; luminometer.
UniProt P02769, sequence (P02769 25-607, stated change not applied): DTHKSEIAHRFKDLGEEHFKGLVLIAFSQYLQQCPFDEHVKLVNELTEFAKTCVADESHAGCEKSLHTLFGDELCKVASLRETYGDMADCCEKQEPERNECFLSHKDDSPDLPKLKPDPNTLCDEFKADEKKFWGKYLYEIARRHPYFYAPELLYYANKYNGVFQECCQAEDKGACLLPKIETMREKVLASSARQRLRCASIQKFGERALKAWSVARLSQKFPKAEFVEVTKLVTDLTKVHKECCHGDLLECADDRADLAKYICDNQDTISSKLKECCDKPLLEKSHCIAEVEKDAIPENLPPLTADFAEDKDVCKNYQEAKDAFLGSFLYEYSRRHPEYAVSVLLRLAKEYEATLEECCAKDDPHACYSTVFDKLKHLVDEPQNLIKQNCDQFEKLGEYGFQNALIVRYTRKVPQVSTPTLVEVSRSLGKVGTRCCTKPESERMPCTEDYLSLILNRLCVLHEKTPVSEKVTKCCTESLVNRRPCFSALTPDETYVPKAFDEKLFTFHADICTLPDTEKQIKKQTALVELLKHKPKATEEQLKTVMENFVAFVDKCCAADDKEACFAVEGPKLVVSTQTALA
Turning to SSEEHLRQTRSETMRNSVKSSFHDPKLKGKPSRERYVTHNRAHW (also: MACN acridinium label, site not given here) [MACN-labeled peptide PSW44 (derived from proEndothelin)], the percentage of non-specific binding relative to the total activity amounted to 3%.

In turn, ATQLDGPAGALLLRLVQLAGAPEPFEPAQPDAY (also: MACN acridinium label, site not given here) [MACN-labeled peptide PAY33 (derived from copeptin)] came in with a percentage of non-specific binding relative to the total activity of 6.5%.

In the case of PEVPPWTGEVSPAQRDGGALGGGGRGPWDSSDRSALLKSKL (also: MACN acridinium label, site not given here) [MACN-labeled peptide PPL41 (derived from NT-proANP)], the percentage of non-specific binding relative to the total activity was 3.1%.

ELRMSSSYPTGLADVKAGPAQTLIRPQDMKGASRSPEDSSPDAARIRV (also: MACN acridinium label, site not given here) [MACN-labeled Peptide 45-92 (derived from pro-adrenomedullin)] registered a percentage of non-specific binding relative to the total activity of 2.9%.
